{"source": "patent US6100293A", "about": "“Tetracyclic triterpene derivatives with immunosuppressant activity” (Merck & Co., Inc., priority 1998, dated 2000)", "origin": "cited, not measured here", "target": "T1, Kv 1.3 channels (Homo sapiens, UniProt P22001)", "T1 construct": "expressed in transfected cells; host or cells: CHO cells", "T1 sequence (P22001 whole entry)": "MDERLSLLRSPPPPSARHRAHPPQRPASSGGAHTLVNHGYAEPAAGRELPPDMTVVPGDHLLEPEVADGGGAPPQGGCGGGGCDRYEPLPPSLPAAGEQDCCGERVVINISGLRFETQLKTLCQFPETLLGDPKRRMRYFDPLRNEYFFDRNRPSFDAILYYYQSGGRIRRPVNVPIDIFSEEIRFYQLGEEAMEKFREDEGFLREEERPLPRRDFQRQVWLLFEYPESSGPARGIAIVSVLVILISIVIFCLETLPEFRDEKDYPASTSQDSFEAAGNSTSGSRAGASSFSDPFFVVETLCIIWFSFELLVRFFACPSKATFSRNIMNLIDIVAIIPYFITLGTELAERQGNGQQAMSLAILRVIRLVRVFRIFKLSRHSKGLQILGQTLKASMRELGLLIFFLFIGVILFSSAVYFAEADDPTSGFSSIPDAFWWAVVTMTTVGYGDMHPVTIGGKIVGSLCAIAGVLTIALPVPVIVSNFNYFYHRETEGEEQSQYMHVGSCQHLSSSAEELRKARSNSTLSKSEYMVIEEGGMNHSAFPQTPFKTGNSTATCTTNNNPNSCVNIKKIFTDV", "details": "reference peptide used at saturating concentration to set the efflux window; read-out: IC50 (blocker of Kv 1.3 channels)", "data": [{"substance": "margatoxin (TIINVKCTSPKQCLPPCKAQFGQSAGAKCMNGKCKCYPH; UniProt P40755 1-39, looked up)", "values": [{"measurement": "IC50", "result": 100, "unit": "pM"}]}]}
